This assay deals with SNU16 human stomach cancer cell line. Kind of assay: In vitro binding of FITC-conjugated peptides to apoptotic cells, flow cytometry. The format is cell-based. The note with it: fluorescent probe. As to the method:
SNU16 human stomach cancer cell line was purchased from KCLB (Seoul, Korea). […] After treatment, cells were incubated with fluorescein isothiocyanate (FITC)-conjugated linear or cyclic form of ApoPep-1 peptide at 4[…] for 1 hour. As control, cells were stained with Alexa488-conjugated annexin V (Life technologies, Carlsbad, Calif.) for 15 min at room temperature. Percentages of fluorescent (the liner or cyclic form of ApoPep-1 peptide-bound or annexin V-bound fluorescence) cells were calculated by measurement and analysis methods through the selection of the fluorescent signals (the liner or cyclic form of ApoPep-1 peptide-bound or annexin V-bound fluorescence), which were shown in the respective cells when cells in an emulsion state pass through a constant fluorescence detection zone, using flow cytometry (Fluorescence-activated cell sorting (FACS), FACS calibur, BD Biosciences, MA, USA).
Cyclic form of ApoPep-1 (cyclo[CQRPPRC] peptide of the present invention) was prepared by adding cysteine residue at the carboxy terminal of linear form of ApoPep-1 (CQRPPR) and performing cyclization through disulfide bonding.

B1: annexin V: existing apoptotic probe used as control, Alexa488-conjugated (Life technologies) (protein, UniProt P08758 2-320, looked up)
Annexin A5: AQVLRGTVTDFPGFDERADAETLRKAMKGLGTDEESILTLLTSRSNAQRQEISAAFKTLFGRDLLDDLKSELTGKFEKLIVALMKPSRLYDAYELKHALKGAGTNEKVLTEIIASRTPEELRAIKQVYEEEYGSSLEDDVVGDTSGYYQRMLVVLLQANRDPDAGIDEAQVEQDAQALFQAGELKWGTDEEKFITIFGTRSVSHLRKVFDKYMTISGFQIEETIDRETSGNLEQLLLAVVKSIRSIPAYLAETLYYAMKGAGTDDHTLIRVMVSRSEIDLFNIRKEFRKNFATSLYSMIKGDTSGDYKKALLLLCGEDD
modifications: Alexa488 conjugate
As to B1, the “percentage of apoptotic cells detected” value reads like this: (SNU16 cells treated with cetuximab alone (200 ug/ml) for 24 hours) approximately 40%; (SNU16 cells treated with cisplatin (300 ng/ml) plus cetuximab in combination for 24 hours) approximately 45%; (SNU16 cells treated with cisplatin alone (300 ng/ml) for 24 hours) “approximately 43%”.

The values above are taken from patent US20170340698A1, “CYCLIC PEPTIDE SPECIFICALLY BINDING TO APOPTOTIC CELLS AND USE THEREOF” (KYUNGPOOK NATIONAL UNIVERSITY INDUSTRY-ACADEMIC COOPERATION …, priority 2014, published 2017).
